Laboratory results reported in patent publication US20240262791A1, “B[…] […] AMINO ACIDS” (priority 2021, published 2024).

Assays:
[1] = biological target: SARS-CoV-2 (2019-nCoV) Spike RBD-mFc Recombinant Protein (SARS-CoV-2; mouse) (UniProt P0DTC2); assay: time course 0 to 16 h at 37 °C, Western blot
[2] = biological target: Spike protein on authentic SARS-CoV-2 Nanoluciferase virus (USA/WA1-2020) (SARS-CoV-2) (UniProt P0DTC2); assay: cell-based or functional assay
[3] = biological target: Spike protein on SARS-CoV-2 GFP Reporter Virus Particles (pseudotyped lentivirus), wild-type strain (SARS-CoV-2) (UniProt P0DTC2); assay: cell-based or functional assay

“ACE2-34FSY (soluble human ACE2, amino acids 1 to 740, FSY at H34, C-terminal His x6) (from UniProt Q9BYF1 18-740) (receptor)” was tested. Which apparent second-order rate constant of covalent crosslinking [1] did it give?
Its apparent second-order rate constant of covalent crosslinking is 123 M⁻¹ s⁻¹.

Which IC50, neutralizing authentic SARS-CoV-2 virus [2] does the source give for “mNb6 dimer with one FFY at position 108 of the N-terminal mNb6 (VHH)” here?
The IC50, neutralizing authentic SARS-CoV-2 virus was 0.28 nM.

What about the IC50, neutralizing pseudovirus [3] of the same substance?
Its IC50, neutralizing pseudovirus is 1.9 nM.
